# Results taken from article doi:10.1101/2020.05.01.070730 (bioRxiv, 2020).
# Positions count from the first letter of the chain named.
# B1: CA-pDNA (dsDNA)
# DNA 1: ATGTGAATCAGTATGGTTCCTATCTGC
# DNA 2: ATTTCCTTCAGCAGATAGAAACCATACTGATTCACAT
# B2: TT-pDNA (dsDNA)
# DNA 1: ATGTGAATCAGTATGGTTTCTATCTGC
# DNA 2: B1 DNA 2 with A19T
# B3: TG-pDNA (dsDNA)
# DNA 1: ATGTGAATCAGTATGGTTTCTATCTGC
# DNA 2: B1 DNA 2 with A19G
# B4: CT-pDNA (dsDNA)
# DNA 1: ATGTGAATCAGTATGGTTCCTATCTGC
# DNA 2: B1 DNA 2 with A19T
# B5: GT-pDNA 13 nt (dsDNA)
# DNA 1: ATGTGAATCAGTATGGTTGCTATCTGCTGAAG
# DNA 2: B1 DNA 2 with A19T
# B6: GG-pDNA (dsDNA)
# DNA 1: ATGTGAATCAGTATGGTTGCTATCTGC
# DNA 2: B1 DNA 2 with A19G
# B7: CC-pDNA (dsDNA)
# DNA 1: ATGTGAATCAGTATGGTTCCTATCTGC
# DNA 2: B1 DNA 2 with A19C
# B8: TC-pDNA (dsDNA)
# DNA 1: ATGTGAATCAGTATGGTTTCTATCTGC
# DNA 2: B1 DNA 2 with A19C
# B9: GA-pDNA (dsDNA)
# DNA 1: ATGTGAATCAGTATGGTTGCTATCTGC
# DNA 2: B1 DNA 2
# B10: MutS from Pseudomonas aeruginosa (natural protein, UniProt Q9HY08 1-855, looked up)
# chain: MTDLSQHTPMMQQYFKLKHQHPDQLMFYRMGDFYELFYEDAKKAAKLLDITLTARGQSGGKAIPMAGIPFHSAEGYLAKLVKLGESVAICEQIGDPATSKGPVERQVVRIITPGTVSDEALLDERRDNLLAAILGDERLFGLAVLDITSGRFSVQEIKGWETLLAELERLNPAELLIPDDWPQGLPAEKRRGVRRRAPWDFDRDSAHKSLCQQFGTQDLKGFGCQNLTLAIGAAGCLLAYAKETQRTALPHLRSLRHDRLDDTVILDGASRRNLELDINLSGGRENTLQSVVDRCQTAMASRLMSRWLNRPLRDRAVLEARQESIACLLERYRFENLQPQLKEIGDLERILARIGLRNARPRDLARLRDALAALPDLQNAMTELEAPHLQALATTIGTYPELAELLAKAIIDNPPAVIRDGGVIKTGYDAELDELQALSENAGQFLMDLEAREKARTGLPNLKVGYNRIHGYFIELPRVQAEQAPADYIRRQTLKGAERFITPELKAFEDKALSAQSRALAREKALYEELLERLIGHLAPLQDSASALAELDVLANLAERALNLDLNRPRFVEHTCLHIEQGRHPVVEQVLETPFVANDLALDADTRMLVITGPNMGGKSTYMRQTALIVLLAHIGSFVPAARCELSLVDRIFTRIGSSDDLAGGRSTFMVEMSETANILHNATDKSLVLMDEVGRGTSTFDGLSLAWAAAEDLARTRAFTLFATHYFELTVLPESQPAVANVHLNATEHNERIVFLHHVLPGPASQSYGLAVAQLAGVPAPVIQRAREHLKRLETTSLPHEMPSQQSGKPASPMQSDLFASLPHPVIDELSRINPDDISPRQALDLLYAWKMRV
# B11: MutSF33A (natural protein, Pseudomonas aeruginosa, UniProt Q9HY08 1-855, looked up)
# chain: B10 chain with F33A
# B12: MutSN279A (natural protein, Pseudomonas aeruginosa, UniProt Q9HY08 1-855, looked up)
# chain: B10 chain with N279A
# B13: MutSR272A (natural protein, Pseudomonas aeruginosa, UniProt Q9HY08 1-855, looked up)
# chain: B10 chain with R272A
# B14: MutSR842E (natural protein, Pseudomonas aeruginosa, UniProt Q9HY08 1-855, looked up)
# chain: B10 chain with R842E
# B15: MutSR272E (natural protein, Pseudomonas aeruginosa, UniProt Q9HY08 1-855, looked up)
# chain: B10 chain with R272E
# B16: AC-pDNA (dsDNA)
# DNA 1: ATGTGAATCAGTATGGTTACTATCTGC
# DNA 2: B1 DNA 2 with A19C
# Biological target: T1, MutS (Pseudomonas aeruginosa, UniProt Q9HY08 1-855)
# T1 sequence: B10 chain
# Test: native PAGE shift
row,Binder,binding result
1,B1,binds
2,B2,binds
3,B3,binds

# Biological target: T1, MutS
# Test: native PAGE shift
# Remark: another data set of the same source
row,Binder,binding result
1,B4,binds

# Biological target: T1, MutS
# Test: native PAGE shift
# Remark: another data set of the same source
row,Binder,binding result
1,B5,binds
2,B6,binds
3,B7,binds
4,B8,binds
5,B9,binds

# Biological target: T2, MutS R842E (Pseudomonas aeruginosa, UniProt Q9HY08 1-855, R842E)
# T2 sequence: B10 chain with R842E
# Test: native PAGE shift
row,Binder,binding result
1,B5,binds

# Biological target: the molecule itself
# Test: native gel or EMSA
row,Binder,stoichiometry N
1,B10,4
2,B11,4
3,B12,4
4,B13,4
5,B14,2
6,B15,4

# Biological target: T1, MutS
# Test: native PAGE shift
# Remark: another data set of the same source
row,Binder,binding result
1,B16,binds

# Biological target: T2, MutS R842E
# Test: native PAGE shift
# Remark: another data set of the same source
row,Binder,binding result
1,B6,binds
2,B4,binds
3,B7,binds
4,B2,binds
5,B16,binds
6,B3,binds
7,B8,binds
8,B9,binds
